Experimental data as given in US20200299347A1.

Target: FGFR3
Test: cell-based or functional assay

FGF18 EC50 (nM), BaF3/FGFR3 cell proliferation (ATP) assay: 0.02 nM
Substance: sprifermin (rhFGF18) (from UniProt O76093 28-196) (ligand)
